Assay results reported in patent US20260167699A1 (Chugai, published 2026).

T1: FcγRIIa(H) extracellular domain, C-terminal His tag (human, UniProt P12318 34-217)
T1 construct: extracellular domain; Allotype H131; also called 2aH
T1 sequence: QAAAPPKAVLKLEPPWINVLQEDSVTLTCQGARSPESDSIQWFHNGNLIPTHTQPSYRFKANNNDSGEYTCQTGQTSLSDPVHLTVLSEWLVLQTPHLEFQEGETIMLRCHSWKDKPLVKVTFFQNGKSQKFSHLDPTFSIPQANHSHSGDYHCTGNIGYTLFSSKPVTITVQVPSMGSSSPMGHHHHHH

T2: FcγRIIa(R) extracellular domain, C-terminal His tag (human, UniProt P12318 34-217)
T2 construct: extracellular domain; Allotype R131; also called 2aR
T2 sequence: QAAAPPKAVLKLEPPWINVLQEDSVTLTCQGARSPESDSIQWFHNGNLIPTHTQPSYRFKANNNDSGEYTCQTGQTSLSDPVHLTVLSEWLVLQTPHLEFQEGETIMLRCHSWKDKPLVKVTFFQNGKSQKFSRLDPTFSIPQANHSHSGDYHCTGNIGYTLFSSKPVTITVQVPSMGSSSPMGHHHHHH

T3: FcγRIIb extracellular domain, C-terminal His tag (human, UniProt P31994 43-217)
T3 construct: extracellular domain; also called 2b
T3 sequence: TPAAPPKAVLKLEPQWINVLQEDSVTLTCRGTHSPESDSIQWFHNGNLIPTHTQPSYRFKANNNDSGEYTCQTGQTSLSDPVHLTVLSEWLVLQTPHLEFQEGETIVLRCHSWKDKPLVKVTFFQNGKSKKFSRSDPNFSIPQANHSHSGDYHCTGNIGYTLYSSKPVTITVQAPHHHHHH


How the values were obtained:
Assay in all cases: SPR (Biacore); binding relative to GpH7-A5/GpH7-B3/GpL16-k0 x100;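 further: antibodies captured on a chip surface, soluble FcγR flowed over in HBS-EP+ running buffer at 25 °C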
[1] = target: T1, FcγRIIa(H) extracellular domain, …
Method: (§1) The antibody of interest was analyzed for its interaction with FcγR using a BiaCore™ T100, BiaCore™ A100, or BiaCore™ 4000 surface plasmon resonance system (GE Healthcare Japan Corp.). The running buffer used was HBS-EP+ (GE Healthcare Japan Corp.). The assay temperature was set to 25° C. The sensor chips used were: a chip prepared by immobilizing antigenic peptides onto Series S Sensor Chip CM5 (GE Healthcare Japan Corp.) by the amine coupling method; a chip prepared by immobilizing antigenic peptides biotinylated in advance onto Series S Sensor Chip SA (certified) (GE Healthcare Japan Corp.) through their interaction; a chip prepared by immobilizing protein L (ACTIGEN, BioVision, Inc.) onto Series S Sensor Chip CM5 (GE Healthcare Japan Corp.); and a chip prepared by immobilizing protein A/G (Thermo Fisher Scientific K.K.) onto Series S Sensor Chip CM5 (GE Healthcare Japan Corp.). The antibody of interest was captured onto any of these chips and allowed to interact with FcγR diluted with a running buffer. The antibody captured on the chip was washed off through the reaction of 10 mM glycine-HCl (pH 1.5) to regenerate the chip, which was repetitively used.

[2] = target: T4, FcγRIa extracellular domain, C-terminal His tag (human, UniProt P12314 16-292)
T4 construct: extracellular domain; also called 1a
Method: as §1

[3] = target: T5, FcγRIIIa extracellular domain, C-terminal His tag (human, UniProt P08637 17-208)
T5 construct: extracellular domain; also called 3a
Method: as §1

[4] = target: T2, FcγRIIa(R) extracellular domain, …
Method: as §1

[5] = target: T3, FcγRIIb extracellular domain, …
Method: as §1

T4 sequence (P12314 other isoform, or with tags, fused parts or gaps): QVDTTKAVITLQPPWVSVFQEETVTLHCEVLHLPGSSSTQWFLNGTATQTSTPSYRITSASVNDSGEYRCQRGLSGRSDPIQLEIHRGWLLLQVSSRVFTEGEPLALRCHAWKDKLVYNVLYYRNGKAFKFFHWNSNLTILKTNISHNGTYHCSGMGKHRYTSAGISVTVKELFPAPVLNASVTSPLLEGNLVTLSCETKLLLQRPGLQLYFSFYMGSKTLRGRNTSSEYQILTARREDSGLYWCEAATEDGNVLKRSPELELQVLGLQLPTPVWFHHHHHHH
T5 sequence (P08637 other isoform, or with tags, fused parts or gaps): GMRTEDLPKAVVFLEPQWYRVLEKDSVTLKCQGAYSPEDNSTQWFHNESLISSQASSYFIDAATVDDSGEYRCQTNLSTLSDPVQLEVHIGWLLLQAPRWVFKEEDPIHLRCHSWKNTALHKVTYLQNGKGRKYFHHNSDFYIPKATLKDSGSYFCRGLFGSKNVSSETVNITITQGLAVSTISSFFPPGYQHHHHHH

| Binder | He/Con 2aH [1] | He/Con 1a [2] | He/Con 3a [3] | He/Con 2aR [4] | He/Con 2b [5] |
| --- | --- | --- | --- | --- | --- |
| GpH7-A5/GpH7-B3 variant A330_04F/GpL16-k0 (antibody, human IgG1, kappa, He Ab: anti-glypican 3 IgG1 heterodimer, only the GpH7-B3 chain mutated; position in EU numbering; also called He Ab) heavy 1: not shown heavy 2: not shown light: DIVMTQSPLSLPVTPGEPASISCQASESLVHSNRNTYLHWYLQKPGQSPQLLIYKVSNRFSGVPDRFSGSGSGTDFTLKISRVEAEDVGVYYCSQNTHVPPTFGQGTKVEIERTVAAPSVFIFPPSDEQLKSGTASVVCLLNNFYPREAKVQWKVDNALQSGNSQESVTEQDSKDSTYSLSSTLTLSKADYEKHKVYACEVTHQGLSSPVTKSFNRGEC | 104% | 110% | 144% | 112% | 105% |
| GpH7-A5/GpH7-B3 variant A330_16H/GpL16-k0 (antibody, human IgG1, kappa, He Ab: anti-glypican 3 IgG1 heterodimer, only the GpH7-B3 chain mutated; position in EU numbering; also called He Ab) heavy 1: not shown heavy 2: not shown light: DIVMTQSPLSLPVTPGEPASISCQASESLVHSNRNTYLHWYLQKPGQSPQLLIYKVSNRFSGVPDRFSGSGSGTDFTLKISRVEAEDVGVYYCSQNTHVPPTFGQGTKVEIERTVAAPSVFIFPPSDEQLKSGTASVVCLLNNFYPREAKVQWKVDNALQSGNSQESVTEQDSKDSTYSLSSTLTLSKADYEKHKVYACEVTHQGLSSPVTKSFNRGEC | 110% | 109% | 102% | 111% | 99% |
| GpH7-A5/GpH7-B3 variant A330_07I/GpL16-k0 (antibody, human IgG1, kappa, He Ab: anti-glypican 3 IgG1 heterodimer, only the GpH7-B3 chain mutated; position in EU numbering; also called He Ab) heavy 1: not shown heavy 2: not shown light: DIVMTQSPLSLPVTPGEPASISCQASESLVHSNRNTYLHWYLQKPGQSPQLLIYKVSNRFSGVPDRFSGSGSGTDFTLKISRVEAEDVGVYYCSQNTHVPPTFGQGTKVEIERTVAAPSVFIFPPSDEQLKSGTASVVCLLNNFYPREAKVQWKVDNALQSGNSQESVTEQDSKDSTYSLSSTLTLSKADYEKHKVYACEVTHQGLSSPVTKSFNRGEC | 94.4% | 109% | 101% | 96% | 75.8% |
| GpH7-A5/GpH7-B3 variant A330_14T/GpL16-k0 (antibody, human IgG1, kappa, He Ab: anti-glypican 3 IgG1 heterodimer, only the GpH7-B3 chain mutated; position in EU numbering; also called He Ab) heavy 1: not shown heavy 2: not shown light: DIVMTQSPLSLPVTPGEPASISCQASESLVHSNRNTYLHWYLQKPGQSPQLLIYKVSNRFSGVPDRFSGSGSGTDFTLKISRVEAEDVGVYYCSQNTHVPPTFGQGTKVEIERTVAAPSVFIFPPSDEQLKSGTASVVCLLNNFYPREAKVQWKVDNALQSGNSQESVTEQDSKDSTYSLSSTLTLSKADYEKHKVYACEVTHQGLSSPVTKSFNRGEC | 102% | 108% | 85.8% | 107% | 87.9% |
| GpH7-A5/GpH7-B3 variant A330_06M/GpL16-k0 (antibody, human IgG1, kappa, He Ab: anti-glypican 3 IgG1 heterodimer, only the GpH7-B3 chain mutated; position in EU numbering; also called He Ab) heavy 1: not shown heavy 2: not shown light: DIVMTQSPLSLPVTPGEPASISCQASESLVHSNRNTYLHWYLQKPGQSPQLLIYKVSNRFSGVPDRFSGSGSGTDFTLKISRVEAEDVGVYYCSQNTHVPPTFGQGTKVEIERTVAAPSVFIFPPSDEQLKSGTASVVCLLNNFYPREAKVQWKVDNALQSGNSQESVTEQDSKDSTYSLSSTLTLSKADYEKHKVYACEVTHQGLSSPVTKSFNRGEC | 101% | 108% | 139% | 107% | 90.9% |
| GpH7-A5/GpH7-B3 variant A330_15Y/GpL16-k0 (antibody, human IgG1, kappa, He Ab: anti-glypican 3 IgG1 heterodimer, only the GpH7-B3 chain mutated; position in EU numbering; also called He Ab) heavy 1: not shown heavy 2: not shown light: DIVMTQSPLSLPVTPGEPASISCQASESLVHSNRNTYLHWYLQKPGQSPQLLIYKVSNRFSGVPDRFSGSGSGTDFTLKISRVEAEDVGVYYCSQNTHVPPTFGQGTKVEIERTVAAPSVFIFPPSDEQLKSGTASVVCLLNNFYPREAKVQWKVDNALQSGNSQESVTEQDSKDSTYSLSSTLTLSKADYEKHKVYACEVTHQGLSSPVTKSFNRGEC | 106% | 108% | 122% | 114% | 107% |
| GpH7-A5/GpH7-B3 variant A330_12R/GpL16-k0 (antibody, human IgG1, kappa, He Ab: anti-glypican 3 IgG1 heterodimer, only the GpH7-B3 chain mutated; position in EU numbering; also called He Ab) heavy 1: not shown heavy 2: not shown light: DIVMTQSPLSLPVTPGEPASISCQASESLVHSNRNTYLHWYLQKPGQSPQLLIYKVSNRFSGVPDRFSGSGSGTDFTLKISRVEAEDVGVYYCSQNTHVPPTFGQGTKVEIERTVAAPSVFIFPPSDEQLKSGTASVVCLLNNFYPREAKVQWKVDNALQSGNSQESVTEQDSKDSTYSLSSTLTLSKADYEKHKVYACEVTHQGLSSPVTKSFNRGEC | 116% | 103% | 77.3% | 116% | 95.8% |
| GpH7-A5/GpH7-B3 variant A330_10E/GpL16-k0 (antibody, human IgG1, kappa, He Ab: anti-glypican 3 IgG1 heterodimer, only the GpH7-B3 chain mutated; position in EU numbering; also called He Ab) heavy 1: not shown heavy 2: not shown light: DIVMTQSPLSLPVTPGEPASISCQASESLVHSNRNTYLHWYLQKPGQSPQLLIYKVSNRFSGVPDRFSGSGSGTDFTLKISRVEAEDVGVYYCSQNTHVPPTFGQGTKVEIERTVAAPSVFIFPPSDEQLKSGTASVVCLLNNFYPREAKVQWKVDNALQSGNSQESVTEQDSKDSTYSLSSTLTLSKADYEKHKVYACEVTHQGLSSPVTKSFNRGEC | 87.7% | 111% | 82.8% | 97.2% | 79.2% |
| GpH7-A5/GpH7-B3 variant A330_09D/GpL16-k0 (antibody, human IgG1, kappa, He Ab: anti-glypican 3 IgG1 heterodimer, only the GpH7-B3 chain mutated; position in EU numbering; also called He Ab) heavy 1: not shown heavy 2: not shown light: DIVMTQSPLSLPVTPGEPASISCQASESLVHSNRNTYLHWYLQKPGQSPQLLIYKVSNRFSGVPDRFSGSGSGTDFTLKISRVEAEDVGVYYCSQNTHVPPTFGQGTKVEIERTVAAPSVFIFPPSDEQLKSGTASVVCLLNNFYPREAKVQWKVDNALQSGNSQESVTEQDSKDSTYSLSSTLTLSKADYEKHKVYACEVTHQGLSSPVTKSFNRGEC | 67.8% | 112% | 56.4% | 79.5% | 62.8% |
| GpH7-A5/GpH7-B3 variant A330_11K/GpL16-k0 (antibody, human IgG1, kappa, He Ab: anti-glypican 3 IgG1 heterodimer, only the GpH7-B3 chain mutated; position in EU numbering; also called He Ab) heavy 1: not shown heavy 2: not shown light: DIVMTQSPLSLPVTPGEPASISCQASESLVHSNRNTYLHWYLQKPGQSPQLLIYKVSNRFSGVPDRFSGSGSGTDFTLKISRVEAEDVGVYYCSQNTHVPPTFGQGTKVEIERTVAAPSVFIFPPSDEQLKSGTASVVCLLNNFYPREAKVQWKVDNALQSGNSQESVTEQDSKDSTYSLSSTLTLSKADYEKHKVYACEVTHQGLSSPVTKSFNRGEC | 118% | 107% | 91.8% | 124% | 107% |
| GpH7-A5/GpH7-B3 variant A330_08L/GpL16-k0 (antibody, human IgG1, kappa, He Ab: anti-glypican 3 IgG1 heterodimer, only the GpH7-B3 chain mutated; position in EU numbering; also called He Ab) heavy 1: not shown heavy 2: not shown light: DIVMTQSPLSLPVTPGEPASISCQASESLVHSNRNTYLHWYLQKPGQSPQLLIYKVSNRFSGVPDRFSGSGSGTDFTLKISRVEAEDVGVYYCSQNTHVPPTFGQGTKVEIERTVAAPSVFIFPPSDEQLKSGTASVVCLLNNFYPREAKVQWKVDNALQSGNSQESVTEQDSKDSTYSLSSTLTLSKADYEKHKVYACEVTHQGLSSPVTKSFNRGEC | 94.7% | 110% | 122% | 99.7% | 79.6% |
